Experimental findings from patent US20100015126A1, “Methods of Binding of Cross-Beta Structures By Chaperones” (priority 2006, published 2010) are described below.

For the test, the target named is T1, BiP-Sepharose (Homo sapiens, UniProt P11021).
T1 construct: The human BiP gene except the signal peptide encoding region was obtained from Geneart (Germany); linker […]; made in house; host or cells: HEK 293E cells, transient transfection, PABC674 vector; secreted into the medium
The test is described as follows: BiP-Sepharose extraction of proteins from patient plasma, serum, synovial fluid and mass-spectrometric identification. Format: binding. Here is the method: BiP was coated on CNBr-Sepharose (GE-Healthcare, Amersham Biosciences). Immobilization of BiP was performed essentially as described elsewhere in this application for NHS-Sepharose. CNBr-matrix was dissolved at 200 mg/ml in 1 mM HCl and treated the same as the NHS-matrix, except for an additional 5 minutes activation step in 1 mM HCl on a roller device before washing in this buffer. BiP was diluted in immobilization buffer (50 mM NaCl and 40 mM NaHCO3) to a concentration of 820 μg/ml. A total volume of 2 ml BiP solution (1640 μg BiP) was incubated with 360 mg beads. Negative control matrix was exposed to immobilization buffer, only. After overnight immobilization matrix was blocked with Tris and washed.
Six samples were incubated with the BiP-Sepharose, IgIV-Sepharose and the control-Sepharose: Normal pooled plasma, plasma of a patient I or of a patient II, with AL amyloidosis, serum of a patient III with RA (Rheumatoid Factor (RF) titer 682), control serum and synovial fluid of a patient IV with RA (RF titer 23). All samples were diluted 20× in HBS and applied to 200 μl beads in two volumes of 500 μl. One volume was incubated for 4 h at RT and supernatant was discarded after centrifugation (2 minutes at 1400 rpm). Subsequently, the second volume was applied to the same matrix and incubated overnight on a roller device at 4° C. […] To collect the eluates, the matrices were centrifuged and the two eluates were pooled for each sample.
Protein digests were desalted as described (Rappsilber et al., 2003), vacuum dried and dissolved in 2.5% formic acid.
For analysis of peptide mixtures, an Agilent 1100 HPLC system (Agilent Technologies) connected to a Thermo Finnigan LTQ-MS (Thermo Electron, Bremen, Germany) was used. Protein digests were injected on a trap column (Reprosil C18 RP (Dr Maisch, Germany), 20 mm×100 μm I.D.) at 5 μl/minute. Subsequently, the peptides were transferred with a split-reduced flow rate of 100 nL/minute solvent A (0.1 M acetic acid) on the analytical column (Reprosil C18 RP, 20 cm×50 μm I.D.). […] The column effluent was directly introduced into the ESI source of the mass spectrometer via a butt-connected nano-ESI emitter (New Objectives, Woburn, Mass.). The mass spectrometer was operated in the positive ion mode and parent ions were selected for fragmentation in data-dependent mode.
After mass spectrometric measurements, peak lists were generated using BioWorks software (Thermo Electron, Bremen, Germany). Protein identification was performed using Mascot software (www.matrixscience.com) by searching the IPIhuman database (version 3.24, downloaded from ftp://ftp.ebi.ac.uk/pub/databases/IPI/current) using the following settings: fully tryptic peptides, peptide tolerance 0.8 Da, MS/MS tolerance 0.9 Da, 1 missed cleavage allowed, carbamidomethyl (Cys) and oxidation (Met) as fixed and variable modification, respectively. The Scaffold software package (www.proteomesoftware.com) was used to parse the data and to filter peptides at a confidence level of 95%, allowing only protein identification with at least 2 peptides identified.

Setting [1] is: Sample B4: eluate of BiP-Sepharose contacted with RA patient III serum.

T1 sequence (P11021 19-654): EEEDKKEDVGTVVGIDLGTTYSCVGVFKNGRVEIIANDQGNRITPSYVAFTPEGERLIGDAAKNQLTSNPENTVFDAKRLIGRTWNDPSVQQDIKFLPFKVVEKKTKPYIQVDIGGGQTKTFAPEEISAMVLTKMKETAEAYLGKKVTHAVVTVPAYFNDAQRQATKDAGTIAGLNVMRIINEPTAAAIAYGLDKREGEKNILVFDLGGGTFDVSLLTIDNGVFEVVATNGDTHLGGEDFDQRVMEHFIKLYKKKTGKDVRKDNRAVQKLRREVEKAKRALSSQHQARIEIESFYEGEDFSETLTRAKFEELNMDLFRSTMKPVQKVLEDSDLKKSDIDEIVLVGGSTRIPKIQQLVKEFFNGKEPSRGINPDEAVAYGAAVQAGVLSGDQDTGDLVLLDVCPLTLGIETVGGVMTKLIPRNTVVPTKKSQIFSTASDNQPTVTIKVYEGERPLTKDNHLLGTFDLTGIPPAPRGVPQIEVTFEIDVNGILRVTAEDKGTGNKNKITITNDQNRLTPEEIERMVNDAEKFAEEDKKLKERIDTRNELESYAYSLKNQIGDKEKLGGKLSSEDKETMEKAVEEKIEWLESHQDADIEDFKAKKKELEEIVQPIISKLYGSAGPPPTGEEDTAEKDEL

B1: Hypothetical protein DKFZp686I04196 (Fragment)/Immunoglobulin heavy constant gamma 2 (G2m marker)/Ig gamma-2 chain C region (protein)
chain: ASTKGPSVFPLAPCSRSTSESTAALGCLVKDYFPEPVTVSWNSGALTSGVHTFPAVLQSSGLYSLSSVVTVPSSNFGTQTYTCNVDHKPSNTKVDKTVERKCCVECPPCPAPPVAGPSVFLFPPKPKDTLMISRTPEVTCVVVDVSHEDPEVQFNWYVDGVEVHNAKTKPREEQFNSTFRVVSVLTVVHQDWLNGKEYKCKVSNKGLPAPIEKTISKTKGQPREPQVYTLPPSREEMTKNQVSLTCLVKGFYPSDISVEWESNGQPENNYKTTPPMLDSDGSFFLYSKLTVDKSRWQQGNVFSCSVMHEALHNHYTQKSLSLSPGK
As for B1, the “# of peptides in sample A#” value under setting [1] worked out at 14.

B2: Immunoglobulin heavy constant mu (protein)
chain: GSASAPTLFPLVSCENSPSDTSSVAVGCLAQDFLPDSITFSWKYKNNSDISSTRGFPSVLRGGKYAATSQVLLPSKDVMQGTDEHVVCKVQHPNGNKEKNVPLPVIAELPPKVSVFVPPRDGFFGNPRKSKLICQATGFSPRQIQVSWLREGKQVGSGVTTDQVQAEAKESGPTTYKVTSTLTIKESDWLGQSMFTCRVDHRGLTFQQNASSMCVPDQDTAIRVFAIPPSFASIFLTKSTKLTCLVTDLTTYDSVTISWTRQNGEAVKTHTNISESHPNATFSAVGEASICEDDWNSGERFTCTVTHTDLPSPLKQTISRPKGVALHRPDVYLLPPAREQLNLRESATITCLVTGFSPADVFVQWMQRGQPLSPEKYVTSAPMPEPQAPGRYFAHSILTVSEEEWNTGETYTCVVAHEALPNRVTERTVDKSTGKPTLYNVSLVMSDTAGTCY
As to B2, for the setting “Sample B6: eluate of BiP-Sepharose contacted with RA patient IV synovial fluid”, the “# of peptides in sample A#” value was found to be 1.

B3: CD5 antigen-like precursor (SP-alpha, CT-2, IgM-associated peptide)/CD5 molecule-like (protein)
chain: SPSGVRLVGGLHRCEGRVEVEQKGQWGTVCDDGWDIKDVAVLCRELGCGAASGTPSGILYEPPAEKEQKVLIQSVSCTGTEDTLAQCEQEEVYDCSHDEDAGASCENPESSFSPVPEGVRLADGPGHCKGRVEVKHQNQWYTVCQTGWSLRAAKVVCRQLGCGRAVLTQKRCNKHAYGRKPIWLSQMSCSGREATLQDCPSGPWGKNTCNHDEDTWVECEDPFDLRLVGGDNLCSGRLEVLHKGVWGSVCDDNWGEKEDQVVCKQLGCGKSLSPSFRDRKCYGPGVGRIWLDNVRCSGEEQSLEQCQHRFWGFHDCTHQEDVAVICSG
As to B3, the “# of peptides in sample A#” value under setting [1] amounted to 1.

B4: Ig lambda chain V-III region SH (protein)
chain: SELTQDPAVSVALGQTVRITCQGDSLRSYYASWYQQKPGQAPVLVIYGKNNRPSGIPDRFSGSSSGNTASLTITGAQAEDEADYYCNSRDSS
On to B4, for which the “# of peptides in sample A#” value under setting [1] was found to be 2.

B5: Dapper homolog 1 (hDPR1) (Heptacellular carcinoma novel gene 3)/Dapper, antagonist of beta-catenin, homolog 1 (Xenopus laevis) (protein)
chain: MKPSPAGTAKELEPPAPARGEQRTAEPEGRWREKGEADTERQRTRERQEATLAGLAELEYLRQRQELLVRGALRGAGGAGAAAPRAGELLGEAAQRSRLEEKFLEENILLLRKQLNCLRRRDAGLLNQLQELDKQISDLRLDVEKTSEEHLETDSRPSSGFYELSDGASGSLSNSSNSVFSECLSSCHSSTCFCSPLEATLSLSDGCPKSADLIGLLEYKEGHCEDQASGAVCRSLSTPQFNSLDVIADVNPKYQCDLVSKNGNDVYRYPSPLHAVAVQSPMFLLCLTGNPLREEDRLGNHASDICGGSELDAVKTDSSLPSPSSLWSASHPSSSKKMDGYILSLVQKKTHPVRTNKPRTSVNADPTKGLLRNGSVCVRAPGGVSQGNSVNLKNSKQACLPSGGIPSLNNGTFSPPKQWSKESKAEQAESKRVPLPEGCPSGAASDLQSKHLPKTAKPASQEHARCSAIGTGESPKESAQLSGASPKESPSRGPAPPQENKVVQPLKKMSQKNSLQGVPPATPPLLSTAFPVEERPALDFKSEGSSQSLEEAHLVKAQFIPGQQPSVRLHRGHRNMGVVKNSSLKHRGPALQGLENGLPTVREKTRAGSKKCRFPDDLDTNKKLKKASSKGRKSGGGPEAGVPGRPAGGGHRAGSRAHGHGREAVVAKPKHKRTDYRRWKSSAEISYEEALRRARRGRRENVGLYPAPVPLPYASPYAYVASDSEYSAECESLFHSTVVDTSEDEQSNYTTNCFGDSESSVSEGEFVGESTTTSDSEESGGLIWSQFVQTLPIQTVTAPDLHNHPAKTFVKIKASHNLKKKILRFRSGSLKLMTTV
For B5, the “# of peptides in sample A#” value under setting [1] amounted to 2.
